Test results published in a protein production outcome set (Wang et al. 2014).

assay: label from the status in PepcDB records
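Further: failed if final PepcDB status was selected cloned or expressed and not failed if soluble or beyond.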

Sequence	protein production
MEDKRNRGRRITDRITEAYYELMKIVAENNHERMFEYYVEDDEAYIFKIVNSSPAQETVYPFFKQNIDTYMSECPADSIECFKKQLDKCLLRPMRTAFQLSFISEDGKSRPVEMYMVSIPDLDKKVCMVVGVMFDIRDEKGLLDSLTGTYNHLAFENKCTSLIRQKGTKLLFVMLDVDDFKIVNDTLGHNVGDRVLSQTGQVLKEAVGANGIVGRLGGDEFAAIVFGLEDSDAVDEFCVKLSGRLKNIIFDMEYSASIGMTTGDDRELTFKDLYYEADQAMYYSKRQGKNRISFFNSIRKNDITVPHNSCAPSITDVSCRMSDREIFSYDEMPDYILAVDEESRRIVFVNKAIRNSSVMTASQIDEFISKPFEDGFIDLFLRKKEQGNRVSVFQERIIPTI	failed
MEDLSDVFDIYAICACCKVAPTSEGTKNEPFSPRTFRGLGNKGTLPWKCNSVDMKYFRSVTTYVDESKYEKLKWKRERYLRMEASQGGGDNTSGGDNNADKLQNVVVMGRSNWESIPKQYKPLPNRINVVLSKTLTKEDVKEKVFIIDSIDDLLLLLKKLKYYKCFIIGGAQVYRECLSRNLIKQIYFTRINGAYPCDVFFPEFDESQFRVTSVSEVYNSKGTTLDFLVYSK	not failed
MEEDVPEAEKLMCPKEVVEKNKDKQEEEEDEKGAKGGILNNLISNFMDCTTTTVEGKSSENIQKSLCEDEDEKEQESPSVGILEKIISHLPEDVAPTTDEAAILIHSAID	failed
MEEGKMDENEWGYHGEGNKSLVVAHAQRCVVLRFLKFPPNRKKTSEEIFQHLQNIVDFGKNVMKEFLGENYVHYGEVVQLPLEFVKQLCLKIQSERPESRCDKDLDTLSGYAMCLPNLTRLQTYRFAEHRPILCVEIKPKCGFIPFSSDVTHEMKHKVCRYCMHQHLKVATGKWKQISKYCPLDLYSGNKQRMHFALKSLLQEAQNNLKIFKNGELIYGCKDARSPVADWSELAHHLKPFFFPSNGLASGPHCTRAVIRELVHVITRVLLSGSDKGRAGTLSPGLGPQGPRVCEASPFSRSLRCQGKNTPERSGLPKGCLLYKTLQVQMLDLLDIEGLYPLYNRVERYLEEFPEERKTLQIDGPYDEAFYQKLLDLSTEDDGTVAFALTKVQQYRVAMTAKDCSIMIALSPCLQDASSDQRPVVPSSRSRFAFSVSVLDLDLKPYESIPHQYKLDGKIVNYYSKTVRAKDNAVMSTRFKESEDCTLVLHKV	failed
MEEKANTGQVIIVLTEHLTFGTLLIPYMAEKSDDGTYQLIEQAFHASPEAISRMNEAEQQAIDIASHYTEKYLMGIYSREKTVSRFLRKLSEDPERVKNNIRPFIEKKMQEMLTLIRHHNLPLYQKQVGSKLLYAHHAYHVHPHDVEIRFTFLADETNFRYQLQCYYDGQPLSLSEQKPVIVLTSSPSALLLGMELYFFPHIESVRILPFTKKKKISVPASQIEKYIDNIVIPIARYHEITTQGLNIIEETYACEAVLSLEDTIYDEQMLRLSFRYGDQSFTPDTVTEMKKIIYRNDFGEIFFFRRDSDAEEEKLRMLTDSGLQRVSDVHFKLSPDAPEKTITEWISTYREMLQQSFLLTGNMGNTPYCLDEIRIEQSCDDEPDWFELHITVVIGNLRIPFSRFRKHILEEKREFLLPDGRMILLPEEWFSKYGNLLELGTQTETGIRLKPTFVGAVQSALEENGPKNLLFKREIRNVPVPQGLNAKLRPYQQKGFSWMVQLNKQGFGGCLADDMGLGKTLQTLTLLQYIYKPLSPDAVTAPMKPVFTETTASDSQPDKECTANNPPVREQIADAEGQFSLFSFSSEDELLPDAREIREKNRPKEDDHRQEHGKNSRKPATLIVVPTSLLHNWRREAKRFTTLAIAEYNSNTAFPKGHPEKFFNHFHLIFTTYGMMRNNIDILRSYTFEYIVLDESQNIKNNDSLTFRSVIQLQGKHRIALTGTPIENSLKDLWAQFRFLQPDLLGEESTFHKQFIIPIRQGNVRMEKRLQQIIAPFILRRSKSEVAPELPPLTEETIYCAMSEKQGESYEQEKNSLRNILLQQPENKDRYHMFSILNGILRLRQLACHPQLIFPDFDGVSGKTEQIIDTFDTLRSEGHKVLIFSSFVRHLEILAEVFRQRGWKYALLTGSTNNRPSEIAHFTEQKDVQAFLISLKAGGVGLNLTQADYVFIIDPWWNPAAESQAIARAHRIGQDKQVIAYRFITQNSIEEKILQLQEDKRRLAETFITDSEALPALSNEQWADLLK	failed
MEEKKDFYDTDELRDFMALVEKTNDIKKIALFRILAFTGIRKGELLALEWKDYRKSTLDINKAISHSPVGYEILPPKANSNRLLSLDEKTCKILDELHQTYPESTRIFESENGGMLSPSKPRKWLLEITKEKEIEPIRIHAFRHTHASLLFESGMSLKQVQYRLGHADLKTTMNIYTHITKLEHHHHHH	not failed
MEENLISMREDHSFHVRYRMEASCLELALEGERLCKSGDCRAGVSFFEAAVQVGTEDLKTLSAIYSQLGNAYFYLHDYAKALEYHHHDLTLARTIGDQLGEAKASGNLGNTLKVLGNFDEAIVCCQRHLDISRELNDKVGEARALYNLGNVYHAKGKSFGCPGPQDVGEFPEEVRDALQAAVDFYEENLSLVTALGDRAAQGRAFGNLGNTHYLLGNFRDAVIAHEQRLLIAKEFGDKAAERRAYSNLGNAYIFLGEFETASEYYKKTLLLARQLKDRAVEAQSCYSLGNTYTLLQDYEKAIDYHLKHLAIAQELNDRIGEGRACWSLGNAYTALGNHDQAMHFAEKHLEISREVGDKSGELTARLNLSDLQMVLGLSYSTNNSIMSENTEIDSSLNGVRPKLGRRHSMENMELMKLTPEKVQNWNSEILAKQKPLIAKPSAKLLFVNRLKGKKYKTNSSTKVLQDASNSIDHRIPNSQRKISADTIGDEGFFDLLSRFQSNRMDDQRCCLQEKNCHTASTTTSSTPPKMMLKTSSVPVVSPNTDEFLDLLASSQSRRLDDQRASFSNLPGLRLTQNSQSVLSHLMTNDNKEADEDFFDILVKCQGSRLDDQRCAPPPATTKGPTVPDEDFFSLILRSQGKRMDEQRVLLQRDQNRDTDFGLKDFLQNNALLEFKNSGKKSADH	failed
MEENMEKNKIKKIALIFNILQVIALAVFEVVLFRLVSYKNKLILDYVPAKYFIILEVVLVAITIIPFLIRKGKKTSIISMVISILMAIVLFATSILGVVYDKDIKNVLNKADQTIDDVVENSKLSTEEYGVYILKSDEAEELKDIENYNLGYNLSYAKDETDSVLKNVLAKANNKLIANEYDDLLKMADELLNTEKTAFIFNQAMLDLIENAGDDTNDGKNNGIYKNFTNKIKCIYVVNVKTAVKEYGGDKNVTKECFNVYISGIDTEGDVTAKSRSDVNIIMSINPVTHQVLLLSTPRDYYVPLSISNGVKDKLTHAGNYGINVSMDTLEMLYDIKLDYFIRLNFTGFVDIIDALGGIDVVSDYSFSTHGYSYSEGLNSNLSGIQALWFARERHAFAEGDKQRGRDQMKVIEAVIKKAQSSALLNNYDEIFANISKSFQTNMPKKDIKALVKYQLNETPNWKVVSTSVTGTGRSDVTYSVPNSRAYVMDPDENSVNEAKKLLQKIQNNKKIKVKTTTE	failed
MEESKELNAVIDVIMLAGTILLKSGSEIHRVEDTMIRIAHSQGIVDCNVLAMPAAIFFSIENTNISRMKRVTSSSYNIEKVCDVNQISRQLVGGQIDLETAFKQLTALQAKPLPYTKLQVTLAATFSAPFFSVMFSGNIYDALGAGVATLFGFAFSLYVEKFIRIPFVTAFAGAFVFGIIAQFWARYTGFPSTADLIIAGAVMPFVPGIALTNAVRDIMTNHINSGMSKMFESLLITLALGAGTSVALVLMN	failed
MEETILIVSFLLFLILSNVINRIFPKLPLPFIQLVFGILSGLVFHKSQVHIDPELFLAFVIAPLNFREGQESDIGSFIKYRAIILYLILPTVFLTAIVVGYVAGHLLPVSLPLAACFALGAALGPTDAVAFISIAKRFQFPKRAENILKLEGLLNDASGLVSFQFALTALVTGYFSLAKASLKLALAIMGGFLIGLLFAFLMRLCLTVLEKFDAADVTGALLLELTLPFVAYFVADLLGFSAIIAVVVAGVMQANRLKKVTLFDAQVDRVTSVIWETLNFILNGLVFLIFGRELTRIIGPLLTSNAYSNFDLISIVVLVTCTLFLVRFLAVSCFYAWRSFKYHKSFKKYWREIQLLTFSGVKGSVSIATILLLPKHSVIGELGYSLILFTVGAVTLMSFLTGLLVLPKLAPPLQVKDDYLIRLSILTKVLSVLEEDGKSSENQASFYAVIDNYNSRIRHLILEQESSDIKKDLAELQLMMLSIESDGLEAAYRYGNISIKEYRIYQRYLKYLERQVNRSFVSNITYSLTILMRVIRGIVHEFLTFGQGIRNRKKHFKNRKRLLAEVNRQHLTDLYLSNNDLILETLEDMEGYYNATLIDFLQNERIRDAELIKSGLFVERVIARITPDILNETLRGYYLERRTISEFERDGLISSKESQILRDNVNELESYSLRDSQSSIPYQLLDLKK	failed
MEETLATPDATRRSLSPSCSATVKSRAAGFERRTKRRLSETNASVREDREEAEEEEDEVKEKIEALQRIIPGGAALGVDALFEETAGYILSLQCQIKTIKVLTSFLQRIDQEDMKFGG	failed
MEEVEEFKYEPKSVKEIFIEMKDTVELMVDLAYASLLFGDKEIAEEVLELEERIDLLNYQLMMHSVLAARNVKEAEQVITILQIANAIEDISNAAGDLAKMVLEGVELHPVIKETILEGEEIIGKIQVYPESVIVGKTLGELDLATNTGVWIIAVRRGKRWIFGPNENFKIRAGDVLIGRGTRTSIDHLKEIARGAIRVIGNERA	not failed
MEEVKFYVRCYDKIELARMYFPNLSNPVSVAKLRRWMRNCMPLMEELMAGDFHPKMKMFSAREVRLIVRYLGEPDGYVFMHEHADVK	failed
MEEVSSEMEVEVQNRQLSDSSPAQNVKKFGLKNSIQTNFGSDYVFQIVPKIDWTAIAVSLSTNTVKLYSPVTGQYYGECKGHSDTVNQIAFSSDSAASPHVLHSCSSDGTIRSWDTRSFQQVSRIDTGNDQEIFSFSYGGAADNLLAGGCKEQVLLWDWRNSKQVACLEESHMDDVTQVHFVPNKPNKLLSASVDGLICLFNTEGDINDDDHLESVINVGTSIGKIGFLGDGYKKLWCLTHIETLSIWNWEDGSCEVNLEKARELASDSWTQDNVDYFVDCHCPGGEDLWVIGGTCAGTVGYFPVNYKQPGSIGTAEAILGGGHIDVVRSVLQMPGEYGGAAGLFGWTGGEDGRLCCWKSDEDATEINRSWTSSELVVKPPRNRKKNRHSPY	failed
MEFIVDSVDKTMHIGRQLGSLVNKGDILCLTGDLGTGKTHISKGIAEGLGIDEHITSPTFNIVNEYHSGRLTLYHFDVYRVNDPDEIEAIGFDEYIFGDGVSLIEWANYIEELIPEEYIHIKIEKLPDMGENFRKITINGYGDRYNYIKEIKECLEHHHHHH	not failed
MEFKDYYATLGVEPSAGDAEIKTAYRRLARKYHPDVSKEAGAEDKFKAINEAYEALRDPAKRKAYDQLKAQGFRPGDEFQAPPNYGGGQGFDFEEVFGNGGAGGGFSDFFESLFAGQRGGRPRGPGAGPGAGAGPQARGDTRAKLAVPLEAVYSGDSVRITINGKQLDVRVPKGVQPGQVIRLSGQGNGGGNLLLEIEYAAHPHFEVDGRNILYTLQVMPWQAALGTTISVPTLGGSVELKVPADSDAGRKLRLRGRGLPGTTPGDQIVELEILAPAPTDDAQKKAYRNLAKAFGETVS	failed
MEFKDYYKIMGVPRDASQDDIKRAYRKLARKYHPDVSKDPQAEARFKELGEAYEVLKDPEKRVAYDRLGTNWKADQEFRPPPDWNAGFEFSQQGFTGADAAQFSEFFESLFGRSFRAEQARRGGETHGGPGGAFFHAPGEDRYAKIMIDLEDSYHGATRTISLQVPEVDAEGHVSTREHKLNVVIPRGIRPRQYIRLAGKGAPGHGQGKAGDLYLEIEFRSHPIYRVDEHDVYLDLPVAPWEAALGATITVPTPEGMVDLKIPADSTTGRKLRLKGRGIPGKIPGDFYVVLRIVPPPATDESDKAFYRSMAEQFKSFNPRAKLGVQA	failed
MEFLDWKFIFIIITFAFIGLICIFKRSKIGLTAASVGIIGSLILWGFFKVSIKVRNFLDGVGLSFKDLLNFLFVVITAIIAFLVIFLFLKAFNNFGSKIRKR	failed
MEFPDLTVEIKGPDVVGVNKLAEYEVHVKNLGGIGVPSTKVRVYINGTLYKNWTVSLGPKEEKVLTFNWTPTQEGMYRINATVDEENTVVELNENNNVATFLEHHHHHH	not failed
